The values below come from PMC7911018.

This test has as its target C8-αGFP chimera (anti-GFP CDRs grafted into the C8WT scaffold) fused to mCherry. In words: SEC; gel filtration after IMAC on Superdex 75 10/30 in PBS, pH 7.4, 1 mM DTT. For orientation: Size exclusion chromatography separates by hydrodynamic size, large species first.

B1: C8-αGFP chimera (anti-GFP CDRs grafted into the C8WT scaffold) fused to mCherry (VHH)
VHH: DVQLQASGGGLAQPGGSLRLSCAASGFPVNRYSMYWVRQAPGKGLEWVSSISSAGDRSSYYADSVKGRFTISRDNAKNTLYLQMNSLKLEDTALYFCAVNVGFEGQGTQVTVSS
B1 yielded a stoichiometry N of 2.

The term stoichiometry N denotes the number of molecules, sites or subunits per partner or assembly.
